Where “and” joins values, the source holds several entries; their conditions need not be identical. Identical values can stand only once. Like-named read-outs stand apart in the source and are kept apart here.

For test [1], the target named is Phosphatase and tensin homolog deleted on chromosome 10 (PTEN) (African green monkey (endogenous in Vero)). The test can be described thus: co-IP; immunoprecipitation with PTEN, Rak or β-arrestin antibodies from Vero cells, mock, ARV-infected or p17-transfected, also with Rak shRNA, Rock-1 shRNA, Y-27632 or TBB; 500 ug cellular proteins with 4 ug antibody at 4°C overnight; Western blot; amounts normalized to mock controls. Background: A western blot detects proteins with antibodies after separation by electrophoresis.

For test [2] the target is unchanged. Described as above. This is another data set of the same source.

Sequence of Rak (P42685 whole entry): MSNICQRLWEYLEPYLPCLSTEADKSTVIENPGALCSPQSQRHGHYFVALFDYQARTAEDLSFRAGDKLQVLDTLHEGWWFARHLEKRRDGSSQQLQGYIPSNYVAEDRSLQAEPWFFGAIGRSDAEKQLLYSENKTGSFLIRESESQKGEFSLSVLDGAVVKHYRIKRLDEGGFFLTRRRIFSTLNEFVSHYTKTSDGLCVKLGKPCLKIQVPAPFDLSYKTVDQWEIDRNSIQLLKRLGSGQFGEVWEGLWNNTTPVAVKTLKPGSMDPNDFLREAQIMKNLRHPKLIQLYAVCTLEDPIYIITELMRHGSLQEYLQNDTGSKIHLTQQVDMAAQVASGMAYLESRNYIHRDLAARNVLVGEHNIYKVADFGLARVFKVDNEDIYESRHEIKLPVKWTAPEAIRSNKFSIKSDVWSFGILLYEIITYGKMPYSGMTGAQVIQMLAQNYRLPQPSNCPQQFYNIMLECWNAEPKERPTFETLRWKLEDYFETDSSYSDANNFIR

Consider E3 ligase NEDD4-1 (natural protein), for which the other in test [1] was 2.8 fold and 3.1 fold; in test [2] it was 2.35 fold and 2.45 fold.
For the substance “Rak (from UniProt P42685-1 1-505) (natural protein)”, in test [1], the fold increase of Rak-PTEN association against mock, ARV-infected cells stood at 3.8 fold and the fold increase of Rak-PTEN association against mock, p17-transfected cells is 4.5 fold.
In test [1], β-arrestin (natural protein) returned a fold increase of β-arrestin-PTEN association against mock, ARV-infected cells of 3.5 fold and a fold increase of β-arrestin-PTEN association against mock, p17-transfected cells of 6 fold.
